Data reported in PMC5404189.

Target: extracellular fibrinogen binding protein (Staphylococcus aureus) (UniProt A6QG59)
Test: ELISA

Sequence of UniProt A6QG59 (A6QG59 30-165): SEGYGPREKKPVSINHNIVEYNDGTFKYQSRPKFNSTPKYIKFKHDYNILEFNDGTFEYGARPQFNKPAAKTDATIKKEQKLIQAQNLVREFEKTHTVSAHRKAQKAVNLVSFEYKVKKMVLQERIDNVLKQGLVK

human complement C3 (natural protein)
reBC at 10% plasma: > 80%
